Holding throughout (assay): SPR; ProteON XPR36, GLC chip; BMP-2 immobilised by amine coupling (1000-2000 RU), CV2 VWC1 proteins as analytes in six concentrations; 25 °C, HBST500 (10 mM HEPES pH 7.4, 500 mM NaCl, 0.005% Tween20); global Langmuir 1:1 fit, KD = koff/kon, or from dose-dependency of equilibrium binding for weak or fast binders; apparent KD
The target in test [1] is E. coli derived recombinant human BMP-2 (human) (UniProt P12643).
The target is the same in test [2]. This is another data set of the same source.
The target is the same in test [3]. The source holds these as a separate data set.

Like-named read-outs stand apart in the source and are kept apart here. A value given as a limit tells only on which side of the number the result lay.

E. coli derived recombinant human BMP-2 (human), sequence (P12643 283-396): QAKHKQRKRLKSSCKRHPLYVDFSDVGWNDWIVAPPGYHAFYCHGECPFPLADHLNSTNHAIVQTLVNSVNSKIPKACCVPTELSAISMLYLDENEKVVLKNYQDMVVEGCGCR

Regarding CV2 VWC1 E10A (domain or fragment), in test [1], the Kd stood at 13 nM, the koff turned out to be 0.0095 s⁻¹ and the kon was 750000 M⁻¹ s⁻¹.
Consider “VWC1 domain (von Willebrand type C domain 1) of Danio rerio Crossveinless 2, wildtype (domain or fragment)”, for which, in test [1], the Kd was determined as 13 nM, the koff came to 0.0087 s⁻¹ and the kon was 650000 M⁻¹ s⁻¹. For the same substance, the Kd in test [2] was determined as 14 nM.
As to CV2 VWC1 E6P (domain or fragment), in test [1], the Kd is 12 nM, the koff came to 0.0073 s⁻¹ and the association rate constant (kon) was 630000 M⁻¹ s⁻¹.
Regarding CV2 VWC1 G4A (domain or fragment), in test [1], the Kd is 239 nM and the koff was above 0.05 s⁻¹. For the same substance, in test [3], the off-rate constant (koff) is 0.06 s⁻¹.
With CV2 VWC1 InsA10 (domain or fragment), in test [1], the Kd is 13 nM, the koff worked out at 0.0012 s⁻¹ and the association rate constant (kon) stood at 910000 M⁻¹ s⁻¹.
